Test [1] addresses T1, human IL-13 (human, UniProt P35225 35-146, limits assumed).
T1 construct: Biotinylated in the binary complex AlphaScreen; Different commercial lots are kept as one molecule; also called hIL-13; hIL13
The experiment in a line: AlphaScreen, purified ISVD; hIL-13 to hIL-13Rα1-hFc.

Test [2] concerns the target T1, human IL-13. Nature of the test: AlphaScreen, purified ISVD; hIL-13:hIL-13Rα1:hIL4Rα ternary complex.
Test [3] has as its target T2, hIL13-Fc (human, UniProt P35225 25-146).
T2 construct: not shown: Fc part and any linker not described
The experiment in a line: SPR (BIAcore T100), hIL13-Fc immobilised on CM5; heterogeneous ligand fit, major interaction.

Test [4] has as its target T3, cyno IL13-Fc (cynomolgus monkey, UniProt Q0PW92 11-132).
T3 construct: not shown: Fc part and any linker not described
The experiment in a line: SPR (BIAcore T100), cyno IL13-Fc immobilised on CM5; heterogeneous ligand fit, major interaction.

Test [5] deals with T2, hIL13-Fc. The experiment in a line: competition ELISA; hIL13-Fc to coated IL13Rα2.
The target of test [6] is T1, human IL-13. Nature of the test: cell-based or functional assay.
The target in test [7] is T2, hIL13-Fc. Nature of the test: SPR; * measured on hIL-13-Fc (same values as Table 9).
Test [8] addresses T2, hIL13-Fc. The experiment in a line: SPR (ProteOn XPR36), periplasmic extract over immobilised Fc fusion.
In test [9] the target is T3, cyno IL13-Fc. The test is described as above.
In test [10] the target is T4, hTSLP-Fc (human, UniProt Q969D9 29-159).
T4 construct: also called hTSLP-hFc; hTLSP-Fc; not shown: human Fc part and any linker not described
The description is as above.

The target in test [11] is T5, cyno TSLP-Fc (cynomolgus monkey, UniProt A0A7N9CAT7 29-159).
T5 construct: also called cyno TSLP-hFc; not shown: human Fc part and any linker not described
Described as above.

For test [12], the target named is T6, human TSLP (human, UniProt Q969D9 29-159).
T6 construct: also called hTSLP; hTSP
Nature of the test: AlphaScreen, purified ISVD; hTSLP to hTSLPR.

Test [13] concerns the target T5, cyno TSLP-Fc. Nature of the test: SPR, cyno TSLP-hFc (same value as Table 10).
For test [14], the target named is T4, hTSLP-Fc. Nature of the test: SPR (BIAcore T100), Fc fusion captured by anti-huIgG.
The target of test [15] is T5, cyno TSLP-Fc. The description is as above.
For test [16], the target named is T4, hTSLP-Fc. The experiment in a line: SPR, hTSLP-hFc (same value as Table 10).
Test [17] has as its target T6, human TSLP. The experiment in a line: SPR, hTSLP.
For test [18], the target named is T7, cyno TSLP (cynomolgus monkey, UniProt A0A7N9CAT7 29-159).
T7 construct: also called cynomolgus monkey TSLP
The experiment in a line: SPR, cyno TSLP.

In test [19] the target is T6, human TSLP. Nature of the test: AlphaScreen, purified ISVD; hTSLP:hTSLPR:hIL7Rα ternary complex.
The target of test [20] is T2, hIL13-Fc. Nature of the test: competition ELISA; soluble IL-13Rα2 as positive control against coated IL13Rα2.
Test [21] deals with T6, human TSLP. Nature of the test: cell-based or functional assay.
The target in test [22] is T7, cyno TSLP. The experiment in a line: cell-based or functional assay.
The next test concerns the target T8, human serum albumin (human, UniProt P02768 25-609).
T8 construct: also called HSA; SA (human)
Nature of the test: Gyrolab in-solution affinity, 2 h incubation.

The target in a further test is T9, cyno serum albumin (cynomolgus monkey).
T9 construct: also called SA (cynomolgus monkey)
Nature of the test: Gyrolab in-solution affinity, 2 h incubation.

A further test concerns the target T10, mouse serum albumin (mouse, UniProt P07724 25-608).
T10 construct: also called SA (mouse)
The experiment in a line: Gyrolab in-solution affinity, 2 h incubation.

The target in test [23] is T6, human TSLP. Nature of the test: Gyrolab in-solution affinity, 72 h incubation.
Test [24] addresses T11, cyno IL-13 (cynomolgus monkey, UniProt Q0PW92 21-132).
T11 construct: also called cyIL-13; cynomolgus monkey IL13
Nature of the test: Gyrolab in-solution affinity, 72 h incubation.

For test [25], the target named is T7, cyno TSLP. Nature of the test: Gyrolab in-solution affinity, 72 h incubation.
The target in test [26] is T12, rhesus IL-13 (rhesus monkey, UniProt Q864V6 19-132, limits assumed). The experiment in a line: Gyrolab in-solution affinity, 72 h incubation.
Test [27] has as its target T1, human IL-13. Nature of the test: Gyrolab in-solution affinity, 72 h incubation.
Test [28] concerns the target T11, cyno IL-13. Nature of the test: cell-based or functional assay.
For test [29], the target named is T12, rhesus IL-13. The experiment in a line: cell-based or functional assay.
The target in test [30] is T1, human IL-13. The experiment in a line: cell-based or functional assay. This is another data set of the same source.
Test [31] concerns the target T6, human TSLP. The experiment in a line: Gyrolab in-solution affinity, 48 h incubation.
Test [32] deals with T11, cyno IL-13. Nature of the test: Gyrolab in-solution affinity, 48 h incubation.
Test [33] deals with T7, cyno TSLP. Nature of the test: Gyrolab in-solution affinity, 48 h incubation.
For test [34], the target named is T1, human IL-13. The experiment in a line: Gyrolab in-solution affinity, 48 h incubation.
Test [35] addresses T6, human TSLP. Nature of the test: cell-based or functional assay. This is another data set of the same source.
Another test addresses T13, human IL7 (human, UniProt P13232 26-177).
T13 construct: also called 1L7
T13 sequence (looked up): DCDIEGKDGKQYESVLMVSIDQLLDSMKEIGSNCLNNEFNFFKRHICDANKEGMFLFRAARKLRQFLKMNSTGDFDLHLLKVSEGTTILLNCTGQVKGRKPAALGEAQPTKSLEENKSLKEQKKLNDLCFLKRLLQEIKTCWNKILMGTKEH
Nature of the test: SPR (ProteOn XPR36), cytokine immobilised by amine coupling.

Another test addresses T14, human IL4 (human, UniProt P05112 25-153).
T14 construct: also called human 1L4
T14 sequence (looked up): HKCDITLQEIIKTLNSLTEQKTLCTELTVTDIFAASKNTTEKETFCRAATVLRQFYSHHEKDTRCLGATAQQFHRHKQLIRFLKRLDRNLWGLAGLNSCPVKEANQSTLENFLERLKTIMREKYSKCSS
The description is as above.

Test [36] deals with T11, cyno IL-13. The experiment in a line: cell-based or functional assay. The source holds these as a separate data set.
The target of test [37] is T1, human IL-13. Nature of the test: cell-based or functional assay. This is another data set of the same source.
The next test addresses short form of TSLP (UniProt Q969D9-2 1-63, limits assumed). The experiment in a line: SPR (ProteOn), short form of TSLP immobilised.

Several values for one entry are separate records, joined by “and”; a condition that tells them apart may be missing. Equal entries are not always repeated.

B1: F0107004B02 (VHH)
VHH: EVQLVESGGGLVQAGGSLRLSCAASGRTFSSYRMGWFRQAPGKEREFVAALSGDGYSTYTANSVNSRFTISRDNAKNTVYLQMNSLKPEDTAIYYCAAKLQYVSGWSYDYPYWGQGTLVTVSS
notes: Wild-type anti-IL-13 ISVD; also called F010704B02; F107004B02; not shown: c-myc, His6 tag of the purified protein
With B1, the IC50 in the test with human IL-13 [1] amounted to 4 nM; with human IL-13 [2] it was 1.7 nM; with hIL13-Fc [5], 49 nM. The Kd was 1100 nM in the test with hIL13-Fc [3], 1900 nM with cyno IL13-Fc [4] and 1100 nM with hIL13-Fc [7]. Besides, the koff was determined as 0.024 s⁻¹ in the test with hIL13-Fc [3]; 0.034 s⁻¹ with cyno IL13-Fc [4]; 0.024 s⁻¹ in the test with hIL13-Fc [7]; 0.0017 s⁻¹ with hIL13-Fc [8]; 0.0011 s⁻¹ with cyno IL13-Fc [9]. In addition, the kon in the test with hIL13-Fc [3] was found to be 22000 M⁻¹ s⁻¹; with cyno IL13-Fc [4], 18000 M⁻¹ s⁻¹; with hIL13-Fc [7] it was 22000 M⁻¹ s⁻¹. Also, the “IC50, IL-13-induced TF-1 proliferation assay” value with human IL-13 [6] was found to be 27 nM.

B2: F0107529F10 (VHH)
VHH: EVQLVESGGGLVQAGGSLRLSCAASGFTFADYDYDIGWFRQAPGKEREGVSCISNRDGSTYYTDSVKGRFTISSDNAKNTVSLQMNSLKPEDTAVYYCAVEIHCDDYGVENFDFDPWGQGTLVTVSS
notes: Wild-type anti-TSLP ISVD; also called F107529F10; not shown: c-myc, His6 tag of the purified protein
In the case of B2, the koff was < 5e-05 s⁻¹ with hTSLP-Fc [10]; 0.0018 s⁻¹ with cyno TSLP-Fc [11]; 0.00042 s⁻¹ with hTSLP-Fc [14]; 0.0015 s⁻¹ with cyno TSLP-Fc [15]; 6.6e-05 s⁻¹ with human TSLP [17]; 0.0018 s⁻¹ with cyno TSLP [18]. For the same molecule, the IC50 is 0.013 nM with human TSLP [12] and 0.18 nM in the test with human TSLP [19]. Further, the Kd with cyno TSLP-Fc [13] is 1.7 nM; with hTSLP-Fc [14] it was 0.035 nM; in the test with cyno TSLP-Fc [15], 1.7 nM; with hTSLP-Fc [16], 0.035 nM. Besides, the values for the kon in the test with hTSLP-Fc [14] and in the test with cyno TSLP-Fc [15] were 1.2e+07 M⁻¹ s⁻¹ and 870000 M⁻¹ s⁻¹, respectively.

B3: IL13Rα2 (receptor, UniProt Q14627 27-343, looked up)
chain: DTEIKVNPPQDFEIVDPGYLGYLYLQWQPPLSLDHFKECTVEYELKYRNIGSETWKTIITKNLHYKDGFDLNKGIEAKIHTLLPWQCTNGSEVQSSWAETTYWISPQGIPETKVQDMDCVYYNWQYLLCSWKPGIGVLLDTNYNLFYWYEGLDHALQCVDYIKADGQNIGCRFPYLEASDYKDFYICVNGSSENKPIRSSYFTFQLQNIVKPLPPVYLTFTRESSCEIKLKWSIPLGPIPARCFDYEIEIREDDTTLVTATVENETYTLKTTNETRQLCFVVRSKVNIYCSDDGIWSEWSDKQCWEGEDLSKKTLLR
notes: Coated on the plate and also titrated in solution as positive control compound
Turning to B3, the IC50 with hIL13-Fc [20] was 7.9 nM. This counts as single-digit nanomolar.

B4: F027400161 (other)
chain: DVQLVESGGGVVQPGGSLRLSCAASGRTFSSYRMGWFRQAPGKEREFVAALSGDGYSTYTANSVKGRFTISRDNSKNTVYLQMNSLRPEDTALYYCAAKLQYVSGWSYDYPYWGQGTLVTVSSGGGGSGGGGSGGGGSGGGGSGGGGSGGGGSGGGGSEVQLVESGGGVVQPGGSLRLSCAASGFTFNNYAMKWVRQAPGKGLEWVSSITTGGGSTDYADSVKGRFTISRDNSKNTLYLQMNSLRPEDTALYYCANVPFGYYSEHFSGLSFDYRGQGTLVTVSSGGGGSGGGSEVQLVESGGGVVQPGGSLRLSCAASGSGFGVNILYWYRQAAGIERELIASITSGGITNYVDSVKGRFTISRDNSENTMYLQMNSLRAEDTGLYYCASRNIFDGTTEWGQGTLVTVSSGGGGSGGGSEVQLVESGGGVVQPGGSLRLSCAASGFTFRSFGMSWVRQAPGKGPEWVSSISGSGSDTLYADSVKGRFTISRDNSKNTLYLQMNSLRPEDTALYYCTIGGSLSRSSQGTLVTVSSGGGGSGGGSEVQLVESGGGVVQPGGSLRLSCAASGFTFADYDYDIGWFRQAPGKEREGVSCISNRDGSTYYADSVKGRFTISRDNSKNTVYLQMNSLRPEDTALYYCAVEIHCDDYGVENFDFDPWGQGTLVTVSSA
notes: Pentavalent trispecific ISVD construct (two anti-IL-13 VHHs, two anti-TSLP VHHs, one anti-albumin VHH), Pichia pastoris, purified by Protein A; also called F027100161
Turning to B4, the “BaF3 proliferation assay (IC50, pM)” value with human TSLP [21] was 7.8 pM; with cyno TSLP [22], 24 pM. In addition, the Kd was 0.119 nM and 0.11 nM and 0.145 nM with human serum albumin; 0.198 nM and 0.133 nM and 0.145 nM with cyno serum albumin; 1.8 nM with mouse serum albumin; 0.001 nM with human TSLP [23]; 0.0035 nM with cyno IL-13 [24]; 0.059 nM with cyno TSLP [25]. The Kd in the test with rhesus IL-13 [26] is 0.0015 nM; with human IL-13 [27] it was 0.0047 nM; in the test with human TSLP [31] it was 0.0018 nM and 0.0023 nM; with cyno IL-13 [32], 0.0038 nM and 0.0015 nM; with cyno TSLP [33] it was 0.0559 nM and 0.044 nM; in the test with human IL-13 [34], 0.0042 nM and 0.0063 nM. Further, the figures for the “eotaxin release assay (IC50, pM)” value in the test with cyno IL-13 [28], with rhesus IL-13 [29] and with human IL-13 [30] were 1040 pM, 713 pM and 194 pM, respectively. Moreover, the “mean IC50, TSLP-induced CCL17 production in human DCs” value in the test with human TSLP [35] turned out to be 0.0533 nM. The binding result is given as “no binding (tested: 1 µM)” with human IL7, “no binding (tested: 1 µM)” in the test with human IL4 and “no binding (tested: 500 nM)” with short form of TSLP. Moreover, the “IC50, SEAP reporter assay (HEK-Blue IL-4/IL-13 cells)” value with cyno IL-13 [36] worked out at 0.0534 nM; with human IL-13 [37] it was 0.0328 nM.

(Values after patent US20220177564A1 (Ablynx, published 2022).)
